In publication PMC11209011:

What was measured:
Δ2 CD55 IRES GFP = experiment: flow cytometry on cells
[1] = target: recombinant Fc-tagged CD55 (UniProt P08174); experiment: SPR; Biacore T200, 25°C; CD55-Fc immobilized on a Protein G chip, tetramers or monomers as analyte; 150mM NaCl, 0.05% BSA, 0.05% Tween-20, pH 7,5; KD calculated from kon and koff; biological duplicate
Chain of UniProt P08174 (P08174 35-353): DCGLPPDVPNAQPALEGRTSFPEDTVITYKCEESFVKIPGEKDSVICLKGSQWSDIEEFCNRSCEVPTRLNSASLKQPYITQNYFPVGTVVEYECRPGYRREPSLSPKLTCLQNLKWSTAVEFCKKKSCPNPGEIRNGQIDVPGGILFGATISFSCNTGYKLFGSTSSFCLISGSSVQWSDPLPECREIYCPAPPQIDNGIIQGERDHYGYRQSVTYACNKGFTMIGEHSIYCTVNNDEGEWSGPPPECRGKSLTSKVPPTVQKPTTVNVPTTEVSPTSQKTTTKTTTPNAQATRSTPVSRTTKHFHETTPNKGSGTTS

With “HLA-C∗07:01-VRIG tetramer (from UniProt P61769 21-119) (peptide-MHC)” the reduction of the interaction against full length CD55 (Δ2 CD55 IRES GFP) was 50% and the Kd [1] was 1.4 µM.
